Data reported in patent publication EP0830146B1.

How the values were obtained:
[1] = target: human CD3 on Jurkat cells (human) (UniProt P07766); assay: competition with 125I-UCHT1 tracer on Jurkat cells; competitor at 1 nM
[2] = target: human CD3 on Jurkat cells (human) (UniProt P07766); assay: competition with 125I-UCHT1 tracer on Jurkat cells; competitor at 100 nM
[3] = target: human CD3 on Jurkat cells (human) (UniProt P07766); assay: cell-based or functional assay

Which % of 125I-UCHT1 bound [1] does the source give for UCHT1 (antibody) here?
Its % of 125I-UCHT1 bound is 80%.

And the % of 125I-UCHT1 bound [2]?
Its % of 125I-UCHT1 bound is 0%.

Which difference in IC50 against UCHT1-CRM9, protein synthesis inhibition [3] does the source give for sFv-DT390 (from UniProt P00588 1-390) here?
Its difference in IC50 against UCHT1-CRM9, protein synthesis inhibition is 16 fold.

What about the protein synthesis (% of controls), no serum, 1 x 10^-10 M on Jurkat cells (% of controls) [3] of the same substance?
The protein synthesis (% of controls), no serum, 1 x 10^-10 M on Jurkat cells (% of controls) was 18.

How did the % of 125I-UCHT1 bound [1] turn out when scUCHT1 (from UniProt P01871 106-453) was run?
Its % of 125I-UCHT1 bound is 80%.

What about the % of 125I-UCHT1 bound [2] of the same substance?
The % of 125I-UCHT1 bound was 0%.
